Measurements: article PMC2661964, “Mammalian Kinesin-3 Motors Are Dimeric In Vivo and Move by Processive Motility upon Release of Autoinhibition” (PLoS Biology, 2009)

B1: KIF1A(1–726)-3xmCit (domain or fragment, rat, UniProt F1M4A4 1-726, looked up)
chain: MAGASVKVAVRVRPFNSREMSRDSKCIIQMSGSTTTIVNPKQPKETPKSFSFDYSYWSHTSPEDINYASQKQVYRDIGEEMLQHAFEGYNVCIFAYGQTGAGKSYTMMGKQEKDQQGIIPQLCEDLFSRINDTTNDNMSYSVEVSYMEIYCERVRDLLNPKNKGNLRVREHPLLGPYVEDLSKLAVTSYNDIQDLMDSGNKARTVAATNMNETSSRSHAVFNIIFTQKRHDAETNITTEKVSKISLVDLAGSERADSTGAKGTRLKEGANINKSLTTLGKVISALAEMDSGPNKNKKKKKTDFIPYRDSVLTWLLRENLGGNSRTAMVAALSPADINYDETLSTLRYADRAKQIRCNAIINEDPNNKLIRELKDEVTRLRDLLYAQGLGDITDTNTVPGGPKLTNALVGMSPSSSLSALSSRAASVSSLHERILFAPGSEEAIERLKETEKIIAELNETWEEKLRRTEAIRMEREALLAEMGVAMREDGGTLGVFSPKKTPHLVNLNEDPLMSECLLYYIKDGVTRVGREDAERRQDIVLSGHFIKEEHCIFRSDSRGGGEAVVTLEPCEGADTYVNGKKVTEPSILRSGNRIIMGKSHVFRFNHPEQARQERERTPCAETPAEPVDWAFAQRELLEKQGIDMKQEMEQRLQELEDQYRREREEATYLLEQQRLDYESKLEALQKQMDSRYYPEVNEEEEEPEDEVQWTERECELALWAFRKWKWY
notes: source: COS cells, transfected, in lysate
B2: endogenous KIF1A in murine cortical neurons (natural protein, UniProt P33173 1-1695, looked up)
chain: MAGASVKVAVRVRPFNSREMSRDSKCIIQMSGSTTTIVNPKQPKETPKSFSFDYSYWSHTSPEDINYASQKQVYRDIGEEMLQHAFEGYNVCIFAYGQTGAGKSYTMMGKQEKDQQGIIPQLCEDLFSRINDTTNDNMSYSVEVSYMEIYCERVRDLLNPKNKGNLRVREHPLLGPYVEDLSKLAVTSYNDIQDLMDSGNKPRTVAATNMNETSSRSHAVFNIIFTQKRHDAETNITTEKVSKISLVDLAGSERADSTGAKGTRLKEGANINKSLTTLGKVISALAEMDSGPNKNKKKKKTDFIPYRDSVLTWLLRENLGGNSRTAMVAALSPADINYDETLSTLRYADRAKQIRCNAIINEDPNNKLIRELKDEVTRLRDLLYAQGLGDITDMTNALVGMSPSSSLSALSSRAASVSSLHERILFAPGSEEAIERLKETEKIIAELNETWEEKLRRTEAIRMEREALLAEMGVAMREDGGTLGVFSPKKTPHLVNLNEDPLMSECLLYYIKDGVTRVGREDAERRQDIVLSGHFIKEEHCIFRSDSRGGGEAVVTLEPCEGADTYVNGKKVTEPSILRSGNRIIMGKSHVFRFNHPEQARQERERTPCAETPAEPVDWAFAQRELLEKQGIDMKQEMEQRLQELEDQYRREREEATYLLEQQRLDYESKLEALQKQMDSRYYPEVNEEEEEPEDEVQWTERECELALWAFRKWKWYQFTSLRDLLWGNAIFLKEANAISVELKKKVQFQFVLLTDTLYSPLPPDLLPPEAAKDRETRPFPRTIVAVEVQDQKNGATHYWTLEKLRQRLDLMREMYDRAAEVPSSVVEDCDNVVTGGDPFYDRFPWFRLVGRAFVYLSNLLYPVPLVHRVAIVSEKGEVKGFLRVAVQAISADEEAPDYGSGVRQSGTAKISFDDQHFEKFQSESCPVVGMSRSGTSQEELRIVEGQGQGADAGPSADEVNNNTCSAVPPEGLMDSPEKAALDGPLDTALDHLRLGSTFTFRVTVLQASSISAEYADIFCQFNFIHRHDEAFSTEPLKNTGRGPPLGFYHVQNIAVEVTKSFIEYIKSQPIVFEVFGHYQQHPFPPLCKDVLSPLRPSRRHFPRVMPLSKPVPATKLSTMTRPSPGPCHCKYDLLVYFEICELEANGDYIPAVVDHRGACMGTFLLHQGIQRRITVTLLHETGSHIRWKEVRELVVGRIRNTPETDEALIDPNILSLNILSSGYVHPAQDDRVFFGNDTRTFYQFEAAWDSSMHNSLLLNRVTPYREKIYMTLSAYIEMENCTQPAVITKDFCMVFYSRDAKLPASRSIRNLFGSGSLRATEGNRVTGVYELSLCHVADAGSPGMQRRRRRVLDTSVAYVRGEENLAGWRPRSDSLILDHQWELEKLSLLQEVEKTRHYLLLREKLETTQRPGPEVLSPASSEDSESRSSSGASSPLSAEGQPSPLEAPNERQRELAVKCLRLLMHTFNREYTHSHVCISASESKLSEMSVTLMRDPSMSPLGAATLTPSSTCPSLIEGRYGATDVRTPQPCSRPASPEPELLPELDSKKTPSPVRATETEKEPQRLLVPDIQEIRVSPIVSKKGYLHFLEPHTAGWAKRFVVVRRPYAYMYNSDKDTVERFVLNLSTAQVEYSEDQQAMLKTPNTFAVCTEHRGILLQANSDKDMHDWLYAFNPLLAGTIRSKLSRRRSAQMRV
notes: KIF1A, endogenous protein of murine cortical neurons; source: endogenous, detergent extract of murine cortical neurons
B3: KIF1A(1–393)-3xmCit (domain or fragment, rat, UniProt F1M4A4 1-393, looked up)
chain: MAGASVKVAVRVRPFNSREMSRDSKCIIQMSGSTTTIVNPKQPKETPKSFSFDYSYWSHTSPEDINYASQKQVYRDIGEEMLQHAFEGYNVCIFAYGQTGAGKSYTMMGKQEKDQQGIIPQLCEDLFSRINDTTNDNMSYSVEVSYMEIYCERVRDLLNPKNKGNLRVREHPLLGPYVEDLSKLAVTSYNDIQDLMDSGNKARTVAATNMNETSSRSHAVFNIIFTQKRHDAETNITTEKVSKISLVDLAGSERADSTGAKGTRLKEGANINKSLTTLGKVISALAEMDSGPNKNKKKKKTDFIPYRDSVLTWLLRENLGGNSRTAMVAALSPADINYDETLSTLRYADRAKQIRCNAIINEDPNNKLIRELKDEVTRLRDLLYAQGLGDITD
notes: as for B1
B4: endogenous KIF1A in rat brain cytosol (natural protein, rat (endogenous in rat brain), UniProt F1M4A4 1-1707, looked up)
chain: MAGASVKVAVRVRPFNSREMSRDSKCIIQMSGSTTTIVNPKQPKETPKSFSFDYSYWSHTSPEDINYASQKQVYRDIGEEMLQHAFEGYNVCIFAYGQTGAGKSYTMMGKQEKDQQGIIPQLCEDLFSRINDTTNDNMSYSVEVSYMEIYCERVRDLLNPKNKGNLRVREHPLLGPYVEDLSKLAVTSYNDIQDLMDSGNKARTVAATNMNETSSRSHAVFNIIFTQKRHDAETNITTEKVSKISLVDLAGSERADSTGAKGTRLKEGANINKSLTTLGKVISALAEMDSGPNKNKKKKKTDFIPYRDSVLTWLLRENLGGNSRTAMVAALSPADINYDETLSTLRYADRAKQIRCNAIINEDPNNKLIRELKDEVTRLRDLLYAQGLGDITDTNTVPGGPKLTNALVGMSPSSSLSALSSRAASVSSLHERILFAPGSEEAIERLKETEKIIAELNETWEEKLRRTEAIRMEREALLAEMGVAMREDGGTLGVFSPKKTPHLVNLNEDPLMSECLLYYIKDGVTRVGREDAERRQDIVLSGHFIKEEHCIFRSDSRGGGEAVVTLEPCEGADTYVNGKKVTEPSILRSGNRIIMGKSHVFRFNHPEQARQERERTPCAETPAEPVDWAFAQRELLEKQGIDMKQEMEQRLQELEDQYRREREEATYLLEQQRLDYESKLEALQKQMDSRYYPEVNEEEEEPEDEVQWTERECELALWAFRKWKWYQFTSLRDLLWGNAIFLKEANAISVELKKKVQFQFVLLTDTLYSPLPPDLLPPEAAKDRETRPFPRTIVAVEVQDQKNGATHYWTLEKLRQRLDLMREMYDRAAEVPSSVVEDCDNVVTGGDPFYDRFPWFRLVGRAFVYLSNLLYPVPLVHRVAIVSEKGEVKGFLRVAVQAISADEEAPDYGSGVRQSGTAKISFDDQHFEKFQSESCPVVGMSRSGTSQEELRIVEGQGQGADAGPSADEVNNNTCSAVPPEGLLDSPEKAALDGPLDTALDHLRLGSTFTFRVTVLQASSISAEYADIFCQFNFIHRHDEAFSTEPLKNTGRGPPLGFYHVQNIAVEVTKSFIEYIKSQPIVFEVFGHYQQHPFPPLCKDVLSPLRPSRRHFPRVMPLSKPVPATKLSTMTRPSPGPCHCKYDLLVYFEICELEANGDYIPAVVDHRGGMPCMGTFLLHQGIQRRITVTLLHETGSHIRWKEVRELVVGRIRNTPETDEALIDPNILSLNILSSGYVHPAQDDRQFLDSDIPRTFYQFEAAWDSSMHNSLLLNRVTPYREKIYMTLSAYIEMENCTQPAVITKDFCMVFYSRDAKLPASRSIRNLFGSGSLRATEGNRVTGVYELSLCHVADAGSPGMQRRRRRVLDTSVAYVRGEENLAGWRPRSDSLILDHQWELEKLSLLQEVEKTRHYLLLREKLETTQRPVPEVLSPASSEDSESRSSSGASSPLSAEGQPSPLEVPNERQRELAVKCLRLLMHTFNREYTHSHVCISASESKLSEMSVTLMRDPSMSPLGAATLTPSSTCPSLIEGRYGATDVRTPQPCSRPASPEPELLPELDSKKTPSPVRATETEKEPQRLLVPDIQEIRVSPIVSKKGYLHFLEPHTAGWAKRFVVVRRPYAYMYNSDKDTVERFVLNLSTAQVEYSEDQQAMLKTPNTFAVCTEHRGILLQANSDKDMHDWLYAFNPLLAGTIRSKLSRRRSAQMRV
notes: KIF1A, endogenous protein of rat brain cytosol; source: endogenous, cytosolic extract of rat brain
B5: KIF1A-3xmCit (natural protein, rat, UniProt F1M4A4 1-1707, looked up)
chain: B4 chain
notes: KIF1A (Kinesin-3 motor), rat, full length; Vector 3xmCit-N1; also called FL; 3xmCit-tagged FL KIF1A; source: COS cells, transfected, in lysate

Tests used:
[1] = biological target: the molecule itself; assay: stepwise photobleaching of single molecules (TIRF microscopy); lysates of COS cells expressing 3xmCit-tagged constructs, in flow chambers with Cy5-microtubules, with AMPPNP; number of bleaching steps of 160–200 spots for each construct
[2] = biological target: the molecule itself; assay: cross-linking; cytosolic extracts of rat brain and detergent extracts of murine cortical neurons, with or without DMP; SDS-PAGE, immunoblot with anti-KIF1A

Row | Protein | stoichiometry N [1] | stoichiometry N [2]
1 | B1 | 2 | –
2 | B2 | – | 2
3 | B3 | 2 | –
4 | B4 | – | 2
5 | B5 | 2 | –
